The target of this data set is T1, His-tagged HMGB1 (UniProt P09429).
T1 sequence: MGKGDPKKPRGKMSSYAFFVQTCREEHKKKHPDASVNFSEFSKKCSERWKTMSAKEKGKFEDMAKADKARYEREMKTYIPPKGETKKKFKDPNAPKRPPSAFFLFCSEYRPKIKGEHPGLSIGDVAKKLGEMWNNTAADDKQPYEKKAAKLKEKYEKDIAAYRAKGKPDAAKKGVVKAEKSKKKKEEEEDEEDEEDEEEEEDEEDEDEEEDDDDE
Description: SPR. The note with it: comparative pool; no signal increase in FIG. 1; unit M inferred.

For orientation: Kd means a measure of binding affinity in units of concentration. “GGGACGCUCACGUACGCUCANNNNNNNNNNNNNNNNNNNNNNNNNNNNNNNNNNNNNNNNUCAGUGCCUGGACGUGCAGU [40N random RNA pool]” had a Kd of 1040 nM.

The values are drawn from patent publication US20120208867.
